From US20120039878A1

Assays:
[1] = molecular target: murine monoclonal antibody 7D8 (ATCC Accession Number PTA-9468); assay: Competition ELISA; human AA amyloid in solution competing with adsorbed mouse AA (AEF) for mAb 7D8
[2] = molecular target: the 3 mAbs (2A4, 8G9 and 7D8) as a group; assay: Competition ELISA; told for the three mAbs together
[3] = molecular target: murine monoclonal antibody 8G9; assay: Competition ELISA; human AA amyloid in solution competing with adsorbed mouse AA (AEF) for mAb 8G9
[4] = molecular target: murine monoclonal antibody 2A4 (ATCC Accession Number PTA-9662); assay: Competition ELISA; human AA amyloid in solution competing with adsorbed mouse AA (AEF) for mAb 2A4
Chain of murine monoclonal antibody 2A4 (ATCC Accession Number PTA-9662) (VL, as listed by the source, chain 1 of 2): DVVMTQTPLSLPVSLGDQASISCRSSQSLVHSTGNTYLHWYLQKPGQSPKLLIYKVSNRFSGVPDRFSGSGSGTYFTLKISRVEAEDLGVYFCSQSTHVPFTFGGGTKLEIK
Chain of murine monoclonal antibody 2A4 (ATCC Accession Number PTA-9662) (VH, as listed by the source, chain 2 of 2): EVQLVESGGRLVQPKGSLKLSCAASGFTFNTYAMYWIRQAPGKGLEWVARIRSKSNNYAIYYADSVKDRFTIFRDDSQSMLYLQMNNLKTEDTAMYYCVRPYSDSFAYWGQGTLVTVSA

Chain of murine monoclonal antibody 8G9 (VH, as listed by the source, chain 2 of 2): as above
Chain of murine monoclonal antibody 7D8 (ATCC Accession Number PTA-9468) (VL, as listed by the source, chain 1 of 2): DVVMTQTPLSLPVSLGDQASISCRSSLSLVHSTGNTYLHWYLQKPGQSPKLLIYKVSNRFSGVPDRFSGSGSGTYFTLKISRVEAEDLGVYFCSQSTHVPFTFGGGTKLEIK
Chain of murine monoclonal antibody 7D8 (ATCC Accession Number PTA-9468) (VH, as listed by the source, chain 2 of 2): as the sequence (VH, as listed by the source, chain 2 of 2) above

IC50 [1]: > 881 µg/mL | fold of IC50 against murine AEF in solution [2]: 6 to 44 fold | IC50 [3]: > 120 µg/mL | IC50 [4]: > 212 µg/mL
B1: human AA amyloid (human renal AA amyloid extract; AA deposits in human tissue) (protein, UniProt P0DJI8 19-94, looked up)
Amyloid protein A: RSFFSFLGEAFDGARDMWRAYSDMREANYIGSDKYFHARGNYDAAKRGPGGAWAAEVITDARENIQRFFGHGAEDS
modifications: Amyloid protein A amyloid fibrils
